Experiment [1] has as its target human oxytocin receptor (human) (UniProt P30559).
The target of experiment [2] is human vasopressin V1a receptor (human) (UniProt P37288).
The target of experiment [3] is human oxytocin receptor (human) (UniProt P30559). This is another data set of the same source.
Sequence of human oxytocin receptor (human) (P30559 whole entry): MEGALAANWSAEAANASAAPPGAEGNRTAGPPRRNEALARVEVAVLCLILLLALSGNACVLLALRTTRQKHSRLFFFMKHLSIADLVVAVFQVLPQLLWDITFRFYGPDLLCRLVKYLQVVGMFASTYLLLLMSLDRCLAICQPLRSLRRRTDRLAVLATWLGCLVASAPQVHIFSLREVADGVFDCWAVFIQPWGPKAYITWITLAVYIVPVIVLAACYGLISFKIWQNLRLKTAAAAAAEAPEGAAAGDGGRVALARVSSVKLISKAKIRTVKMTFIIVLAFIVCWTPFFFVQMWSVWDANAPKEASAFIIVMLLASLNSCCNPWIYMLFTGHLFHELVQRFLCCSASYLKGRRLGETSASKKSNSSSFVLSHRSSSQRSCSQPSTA

Sequence of Oxytocin (P01178 whole entry, looked up): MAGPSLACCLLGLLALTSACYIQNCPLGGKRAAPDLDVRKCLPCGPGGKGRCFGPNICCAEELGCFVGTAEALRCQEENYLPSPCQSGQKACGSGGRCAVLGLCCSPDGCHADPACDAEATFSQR
Sequence of human vasopressin V1a receptor (human) (P37288 whole entry): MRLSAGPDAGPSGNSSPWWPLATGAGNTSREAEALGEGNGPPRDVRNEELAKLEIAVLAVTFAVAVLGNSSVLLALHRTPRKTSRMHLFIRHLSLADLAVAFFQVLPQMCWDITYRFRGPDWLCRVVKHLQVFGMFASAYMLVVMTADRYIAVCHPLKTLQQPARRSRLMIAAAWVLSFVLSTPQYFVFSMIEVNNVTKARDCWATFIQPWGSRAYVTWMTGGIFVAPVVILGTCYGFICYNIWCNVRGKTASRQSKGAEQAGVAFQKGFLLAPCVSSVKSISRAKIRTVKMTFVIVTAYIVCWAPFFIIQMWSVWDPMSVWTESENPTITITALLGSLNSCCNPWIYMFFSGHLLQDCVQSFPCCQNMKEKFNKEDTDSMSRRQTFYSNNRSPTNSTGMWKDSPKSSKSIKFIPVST

Turning to “Oxytocin (from UniProt P01178 20-28) (peptide)”, the tissue bath, contraction amplitude of strips of pregnant human myometrium, EC50 in experiment [1] turned out to be 1.14 nM. In experiment [2], this substance yielded a maximal intracellular Ca2+ in human cardiomyocytes (FLIPR), EC50 of 174 nM. d[Se-Se]-OT-OH (peptide) came in with an FLIPR Ca2+ mobilization, Emax in experiment [3] of 59%.

The values above are taken from article PMC5892705.
